The supplement of paper PMC10724198
± gives the standard deviation of the averaged measurements.

How the values were obtained:
Saccharomyces cerevisiae [1] = assay: protein stability index of tFT-peptide fusion (C-terminal peptide) (PSI (0-1 scale)); higher = more stable (slower turnover)
Experimental: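 MPS profiling in S. cerevisiae of the tFT-X12 degron library: putative degron peptides plus stable controls, 12 aa, fused to the C-terminus of a sfGFP-mCherry timer. Cells are FACS-sorted into 8 mCherry/sfGFP bins and deep-sequenced. PSI runs from 0 (unstable) to 1 (stable). Backgrounds are wild type, das1Δ and doa10Δ at 30 °C, and wild type, das1Δ, cdc34-1 and cdc53-1 at 37 °C; 2-3 technical replicates each.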

Saccharomyces cerevisiae [2] = assay: as above; conditions: genetic background: wild type; temperature: 30 C
[3] = genetic background: cdc34-1, temperature: 37 C
[4] = genetic background: cdc53-1, temperature: 37 C
[5] = genetic background: das1 deletion, temperature: 30 C
[6] = genetic background: das1 deletion, temperature: 37 C
[7] = genetic background: doa10 deletion, temperature: 30 C
[8] = genetic background: wild type, temperature: 30 C
[9] = genetic background: wild type, temperature: 37 C
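Further: PSI is a weighted mean of sequencing reads over stability bins, variants kept only with over 10 reads, mCherry proximal and sfGFP distal, peptide attached via GGGS linker.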

Sequence | protein stability index (Saccharomyces cerevisiae [1]; [3]) | protein stability index (Saccharomyces cerevisiae [1]; [4]) | protein stability index (Saccharomyces cerevisiae [1]; [5]) | protein stability index (Saccharomyces cerevisiae [1]; [6]) | protein stability index (Saccharomyces cerevisiae [1]; [7]) | protein stability index (Saccharomyces cerevisiae [1]; [8]) | protein stability index (Saccharomyces cerevisiae [1]; [9]) | protein stability index (Saccharomyces cerevisiae [2])
VFWLLVGLGCFS | 0.561 ± 0.017 | 0.563 ± 0.013 | 0.431 ± 0.025 | 0.572 ± 0.0075 | 0.41 ± 0.033 | 0.417 ± 0.028 | 0.5686 ± 0.0022 | 0.481 ± 0.012
CLILGLFSLIFL | 0.525 ± 0.061 | 0.5644 ± 0.00097 | 0.452 ± 0.018 | 0.561 ± 0.011 | 0.4758 ± 0.0028 | 0.441 ± 0.016 | 0.531 ± 0.056 | 0.482 ± 0.027
ASIEVGNVIKQM | 0.672 ± 0.051 | 0.7189 ± 0.0025 | 0.627 ± 0.036 | 0.7202 ± 0.0061 | 0.375 ± 0.0075 | 0.43 ± 0.019 | 0.632 ± 0.027 | 0.518 ± 0.037
PVGRSVFFVWFL | 0.65 ± 0.071 | 0.7009 ± 0.0022 | 0.587 ± 0.019 | 0.744 ± 0.029 | 0.3522 ± 0.0035 | 0.367 ± 0.016 | 0.554 ± 0.013 | 0.458 ± 0.019
YALVQHRWVYYF | 0.4 ± 0.0056 | 0.633 ± 0.061 | 0.625 ± 0.019 | 0.724 ± 0.011 | 0.0888 ± 0.011 | 0.0761 ± 0.011 | 0.0856 ± 0.0031 | 0.119 ± 0.031
VTTTWTWTVRLC | 0.538 ± 0.045 | 0.631 ± 0.016 | 0.54 ± 0.018 | 0.656 ± 0.034 | 0.0752 ± 0.019 | 0.0807 ± 0.024 | 0.149 ± 0.0059 | 0.15 ± 0.024
LWVMVLFFPGCS | 0.3714 ± 0.0026 | 0.493 ± 0.0033 | 0.307 ± 0.042 | 0.552 ± 0.024 | 0.299 ± 0.0056 | 0.326 ± 0.025 | 0.5361 ± 0.0032 | 0.463 ± 0.043
ARWNTDRRRRQL | 0.6089 ± 0.0047 | 0.711 ± 0.024 | 0.688 ± 0.045 | 0.7022 ± 0.0017 | 0.236 ± 0.0035 | 0.253 ± 0.034 | 0.502 ± 0.025 | 0.421 ± 0.017
FRHFPLLLSFVR | 0.428 ± 0.025 | 0.4636 ± 0.0011 | 0.334 ± 0.033 | 0.512 ± 0.01 | 0.324 ± 0.015 | 0.323 ± 0.04 | 0.5 ± 0.0094 | 0.418 ± 0.062
TFVLREYVWVMS | 0.443 ± 0.049 | 0.425 ± 0.011 | 0.254 ± 0.038 | 0.443 ± 0.0057 | 0.202 ± 0.0032 | 0.231 ± 0.027 | 0.426 ± 0.027 | 0.304 ± 0.0032
WLMVGVDWRFVG | 0.436 ± 0.0056 | 0.6254 ± 0.0043 | 0.57 ± 0.024 | 0.7086 ± 0.0033 | 0.0725 ± 0.015 | 0.08 ± 0.012 | 0.0927 ± 0.0084 | 0.138 ± 0.046
HLLMLAMVGFQC | 0.5752 ± 0.0029 | 0.688 ± 0.0015 | 0.475 ± 0.038 | 0.619 ± 0.02 | 0.424 ± 0.0061 | 0.454 ± 0.022 | 0.583 ± 0.025 | 0.487 ± 0.017
VRVFSLVVCWVV | 0.297 ± 0.064 | 0.359 ± 0.0043 | 0.262 ± 0.026 | 0.441 ± 0.0051 | 0.199 ± 0.004 | 0.219 ± 0.028 | 0.367 ± 0.032 | 0.414 ± 0.037
EWSRVVRWNWDG | 0.528 ± 0.046 | 0.69857 ± 0.00044 | 0.637 ± 0.011 | 0.707 ± 0.0084 | 0.121 ± 0.0082 | 0.148 ± 0.014 | 0.266 ± 0.015 | 0.254 ± 0.027
VVTFLCPLVGHV | 0.527 ± 0.023 | 0.501 ± 0.0074 | 0.372 ± 0.029 | 0.546 ± 0.012 | 0.341 ± 0.017 | 0.381 ± 0.013 | 0.507 ± 0.028 | 0.478 ± 0.019
ILVLKFLRLLSA | 0.525 ± 0.015 | 0.555 ± 0.024 | 0.444 ± 0.034 | 0.563 ± 0.012 | 0.343 ± 0.017 | 0.365 ± 0.028 | 0.5261 ± 0.0015 | 0.448 ± 0.031
LIAGTRRIPLFI | 0.593 ± 0.048 | 0.638 ± 0.022 | 0.515 ± 0.043 | 0.665 ± 0.0049 | 0.225 ± 0.0037 | 0.261 ± 0.053 | 0.466 ± 0.015 | 0.406 ± 0.039
GFFFFHGLCFFV | 0.448 ± 0.017 | 0.513 ± 0.028 | 0.382 ± 0.029 | 0.5453 ± 0.0035 | 0.358 ± 0.028 | 0.355 ± 0.023 | 0.526 ± 0.02 | 0.43 ± 0.047
VCLCVIICSMSV | 0.0201 ± 0.00092 | 0.041 ± 0.019 | 0.0324 ± 0.008 | 0.0699 ± 0.011 | 0.0265 ± 0.0033 | 0.0249 ± 0.0073 | 0.0544 ± 0.01 | 0.0535 ± 0.018
IGWKLNRIQKNI | 0.6858 ± 0.0052 | 0.735 ± 0.043 | 0.649 ± 0.028 | 0.728 ± 0.047 | 0.15 ± 0.021 | 0.193 ± 0.029 | 0.436 ± 0.011 | 0.326 ± 0.021

Sequence | protein stability index (Saccharomyces cerevisiae [1]; [3]) | protein stability index (Saccharomyces cerevisiae [1]; [4]) | protein stability index (Saccharomyces cerevisiae [1]; [5]) | protein stability index (Saccharomyces cerevisiae [1]; [6]) | protein stability index (Saccharomyces cerevisiae [1]; [7]) | protein stability index (Saccharomyces cerevisiae [1]; [8]) | protein stability index (Saccharomyces cerevisiae [1]; [9]) | protein stability index (Saccharomyces cerevisiae [2])
LAVVCIHAVSSF | 0.51 ± 0.042 | 0.538 ± 0.069 | 0.352 ± 0.018 | 0.533 ± 0.0038 | 0.333 ± 0.02 | 0.373 ± 0.042 | 0.518 ± 0.038 | 0.418 ± 0.077
CVILVVISGLLG | 0.166 ± 0.035 | 0.315 ± 0.039 | 0.199 ± 0.039 | 0.3938 ± 0.0035 | 0.178 ± 0.013 | 0.217 ± 0.03 | 0.3491 ± 0.0021 | 0.345 ± 0.078
PVLYSFSLWIHL | 0.34 ± 0.049 | 0.441 ± 0.024 | 0.299 ± 0.028 | 0.457 ± 0.011 | 0.2273 ± 0.00038 | 0.255 ± 0.02 | 0.389 ± 0.02 | 0.361 ± 0.0082
CGLGKVLGWRWV | 0.643 ± 0.036 | 0.7267 ± 0.002 | 0.64 ± 0.015 | 0.745 ± 0.023 | 0.185 ± 0.0019 | 0.227 ± 0.01 | 0.5193 ± 0.0018 | 0.4241 ± 0.0014
DAIVLGSVVVCR | 0.515 ± 0.032 | 0.563 ± 0.017 | 0.393 ± 0.029 | 0.5719 ± 0.0051 | 0.342 ± 0.0065 | 0.39 ± 0.038 | 0.55 ± 0.013 | 0.414 ± 0.026
YRGFFIGKLMLV | 0.488 ± 0.04 | 0.548 ± 0.03 | 0.482 ± 0.035 | 0.63 ± 0.013 | 0.112 ± 0.017 | 0.113 ± 0.018 | 0.216 ± 0.081 | 0.201 ± 0.013
LFVFVLAGFCCV | 0.352 ± 0.0073 | 0.436 ± 0.017 | 0.32 ± 0.025 | 0.485 ± 0.011 | 0.287 ± 0.0059 | 0.308 ± 0.039 | 0.432 ± 0.041 | 0.381 ± 0.0073
PFFHVFLLLLLI | 0.153 ± 0.011 | 0.1359 ± 0.00032 | 0.188 ± 0.022 | 0.258 ± 0.0067 | 0.313 ± 0.021 | 0.154 ± 0.017 | 0.213 ± 0.0042 | 0.195 ± 0.0064
AWWMALAVPIVA | 0.02 ± 0.0012 | 0.0219 ± 0.0076 | 0.103 ± 0.025 | 0.0676 ± 0.013 | 0.0817 ± 0.02 | 0.1 ± 0.023 | 0.062 ± 0.00098 | 0.0514 ± 0.042
RSKWEKLDKIVS | 0.675 ± 0.032 | 0.777 ± 0.045 | 0.629 ± 0.051 | 0.681 ± 0.0091 | 0.314 ± 0.022 | 0.396 ± 0.047 | 0.575 ± 0.018 | 0.455 ± 0.0083
SRNSSRYLLLVS | 0.539 ± 0.05 | 0.58 ± 0.076 | 0.52 ± 0.046 | 0.649 ± 0.0096 | 0.211 ± 0.032 | 0.251 ± 0.027 | 0.405 ± 0.011 | 0.316 ± 0.013
FFYVFPFFIFRF | 0.338 ± 0.046 | 0.31 ± 0.031 | 0.364 ± 0.04 | 0.521 ± 0.017 | 0.505 ± 0.025 | 0.362 ± 0.058 | 0.449 ± 0.0095 | 0.406 ± 0.065
AFFCTLCLFLVS | 0.44 ± 0.02 | 0.472 ± 0.033 | 0.36 ± 0.036 | 0.496 ± 0.012 | 0.3064 ± 0.002 | 0.323 ± 0.037 | 0.478 ± 0.023 | 0.402 ± 0.014
LRVLSVVRLSVW | 0.479 ± 0.0067 | 0.545 ± 0.023 | 0.407 ± 0.034 | 0.545 ± 0.011 | 0.382 ± 0.02 | 0.4 ± 0.025 | 0.54567 ± 0.00028 | 0.468 ± 0.055
VRTFVFLVGYCE | 0.594 ± 0.032 | 0.62 ± 0.024 | 0.406 ± 0.027 | 0.614 ± 0.023 | 0.393 ± 0.035 | 0.394 ± 0.034 | 0.557 ± 0.04 | 0.458 ± 0.036
ARFFFFCVGILI | 0.379 ± 0.0081 | 0.474 ± 0.067 | 0.339 ± 0.066 | 0.503 ± 0.046 | 0.295 ± 0.035 | 0.354 ± 0.017 | 0.4581 ± 0.0031 | 0.378 ± 0.035
LFHSFFLYCLMS | 0.56 ± 0.017 | 0.5796 ± 0.0031 | 0.616 ± 0.042 | 0.662 ± 0.04 | 0.5838 ± 0.0054 | 0.541 ± 0.022 | 0.6 ± 0.045 | 0.482 ± 0.015
FVSSLLPLLTLL | 0.555 ± 0.032 | 0.636 ± 0.013 | 0.608 ± 0.032 | 0.694 ± 0.014 | 0.142 ± 0.0036 | 0.141 ± 0.012 | 0.218 ± 0.0057 | 0.293 ± 0.033
ALLYIVVGWSLS | 0.0455 ± 0.011 | 0.185 ± 0.033 | 0.167 ± 0.026 | 0.285 ± 0.025 | 0.12 ± 0.019 | 0.145 ± 0.027 | 0.231 ± 0.0024 | 0.24 ± 0.074
